Test results from the nanobody polyreactivity screen of Harvey et al. (2022).

Experiment: yeast display, Sf9 membrane polyspecificity reagent, FACS + sequencing; frameworks hold sequencing errors
Outline: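 Nanobodies from a synthetic yeast display library (Saccharomyces cerevisiae BJ5465), induced 36–48 hours with galactose, were stained 1 hour at 4 °C with 10% biotinylated, detergent-solubilized Sf9 membrane reagent, enriched on streptavidin microbeads, then FACS-sorted. Anti-HA (expression) and streptavidin (reagent binding) fluorescence set low and high (top ~1%) gates. Polyreactivity labels come from the gate of origin. Genes were colony-PCR amplified, MiSeq 2 × 250 sequenced and filtered by CDR length.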

| Sequence | polyreactivity (PSR sort gate) |
| --- | --- |
| QVQLVESGGGLVQAGGSLRLSCAASGLTFVQYAMGWYRQAPGKERELVAAISRNGGSTYYADSVKGRFTISRDNAKNTVYLQMNSLKPEDTAVYYCATRISYPWWAYDYWGQGTQVTVSS | high polyreactivity |
| QVQLVESGGGLVQAGGSLRLSCAASGLTFVRYAMGWYRQAPGKERELVAAISARGGSTYYADSVKGRFTISRDNAKNTVYLQMNSLKPEDTAVYYCNTVRVHGFPIDRIYDYWGQGTQVTVSS | high polyreactivity |
| QVQLVESGGGLVQAGGSLRLSCAASGLTFVSYAMGWSRQAPGQEREFVAAINRSGGSPYYADSVKGRFTISRDNAKTTVYLQMNSLKPEDTALYYCAARRNLAYYHSGYWGQGTQVTVSS | high polyreactivity |
| QVQLVESGGGLVQAGGSLRLSCAASGLTFVWYGMGRYRQAPGKERELVAAITRGGSTYYADSVKGRFTISRDNAKNTVYLQMNSLKPEDTAVYYCAARRWERRVRPGYYPYDYWGQGTQVTVSS | high polyreactivity |
| QVQLVESGGGLVQAGGSLRLSCAASGLTFVYNTMGWYRQAPGKERELVAAINWSGGRTYYADSVKGRFTISRDNAKNTVYLQMNSLKPEDTAVYYCAALYVPNTPTYKYDYWGQGTQVTVSS | low polyreactivity |
| QVQLVESGGGLVQAGGSLRLSCAASGLTFVYYAMGWYRQAPGKERELVAAISESGTSTYYADSVKGRFTISRDNAKNTVYLQMNSLKPEDTAVYYCAAKDSYYEMDYWGQGTQVTVSS | high polyreactivity |
| QVQLVESGGGLVQAGGSLRLSCAASGLTFVYYAMGWYRQAPGNERELVAAISRRGGSTNYADSVKGRFTISRDNAKNTVYLQMNSLKPEDTAVYYCAATSRYFQPPGYGGGRIGYGYWGQGTQVTVSS | high polyreactivity |
| QVQLVESGGGLVQAGGSLRLSCAASGLTFWDNAMGWYRQAPGKERELVAAIRGGGSTYYADSVKGRFTISRDNAKNTVYLQMNSLKPEDTAVYYCNAESYQDTLFGADNDYDYWGQGTQVTVSS | low polyreactivity |
| QVQLVESGGGLVQAGGSLRLSCAASGLTFWSYAMGWYRQAPGKERELVAAISKRGGSTYYADSVKGRFTISRDNAKNTVYLQMNSLKPEDTAVYYCAARTFRALNKYYYWGQGTQVTVSS | high polyreactivity |
| QVQLVESGGGLVQAGGSLRLSCAASGLTFWYYDMGWYRQAPGKERELVAAISGTGSTYADSVKGRFTISRDNAKNTVYLQMNSLKPEDTAVYYCAADYSGTPYAVYWQWGDYDYWGQGTQVTVSS | low polyreactivity |
| QVQLVESGGGLVQAGGSLRLSCAASGLTFYHYDMGWYRQAPGIETELVAAITNGGSTYYADSVKGRFTISRDNAKNTVYLQMNSLKPEDTAVYYCAADGSGYYDWYYYWGQVTQVTVSS | low polyreactivity |
| QVQLVESGGGLVQAGGSLRLSCAASGLTFYKNAMGWYRQAPGKEKELVAAISDSGGSTYYADSVKGRFTISRDNAKNTVYLQMNSLKPEDTAVCYCNARRRVYYKGFDYWGQGTQVTVSS | high polyreactivity |
| QVQLVESGGGLVQAGGSLRLSCAASGLTFYLYAMGWYRQAPGKERELVAAITSGGSTYYADSVKGRFTISRDNAKNTVYLQMNSLKPEDTAVYYCNKLTYGRVWDHHYDYWGQVTQVTVSS | low polyreactivity |
| QVQLVESGGGLVQAGGSLRLSCAASGLTFYPYAMGWYRQAPGKERELVAAINWSGTTTYYADSVKGRFTISRDNAKNTVYLQMNSLKPEDTAVYYCAAHYTTFIPSPDGDYLGQGTQVTVSS | low polyreactivity |
| QVQLVESGGGLVQAGGSLRLSCAASGLTFYRNAMGWYRQAPGKEREFVAAITSTDGSTYYADSVKGRFTISRDNAKNTVYLQMNSLKPEDTAVYYCAARRRRWSGYWGQGTQVTVSS | high polyreactivity |
| QVQLVESGGGLVQAGGSLRLSCAASGLTFYRYAMGWYRQAPGKERELVAAITSGTRTYYADSVKGRFTISRDNAKNTVYLQMNSLKPEDTAVYYCAFRQGWYHFRYDYWGQGTQVTVSS | high polyreactivity |
| QVQLVESGGGLVQAGGSLRLSCAASGLTFYSNAMGWYRQAPGKERELVARISTGGSTYADSVKGRFTISRDNAKNTVYLQMNSLKPVDTAVYYCAVDGWDDTYFRQDMDYWGQGTQVTVSS | low polyreactivity |
| QVQLVESGGGLVQAGGSLRLSCAASGLTFYTNAMGSYRQAPGKERELLAAITSSGGRTYYADSVKGRFTISRDNAKYTVYLQMNSLKPEDTAVYYCAADARRPRIPEMYYWGLGTQVTVSS | high polyreactivity |
| QVQLVESGGGLVQAGGSLRLSCAASGLTFYYNAMGWYRQAPGKERELVAAISFSGGRTYYADSVKGRFTISRDNAKNTVYLQMNSLKPEDTAVYYCAADWVRNWYTSGSWGQGTQVTVSS | high polyreactivity |
| QVQLVESGGGLVQAGGSLRLSCAASGLTFYYNAMGWYRQAPGKERELVAAISRYGGSTYYADSVKGRFRISRDNAKNTDYLQMNSLKPEDTAVYYCAVAYVYTRKGRVQPVKYDYWGQGTQVTVSS | high polyreactivity |

| Sequence | polyreactivity (PSR sort gate) |
| --- | --- |
| QVQLVESGGGLVQAGGSLRLSCAASGLTFYYNAMGWYRQAPGKERELVAAITWSTDSTYYADSVKGRFTISRDNAKNTVYLQMNSLKPEDTAVYYCAAAVDAFTNKQYYYWGQGTQVTVSS | low polyreactivity |
| QVQLVESGGGLVQAGGSLRLSCAASGLTFYYYAMGWYRQAPGKERELVAGISGSDGSTYYADSVKGRFTISRDNAKNTVYLQMNSLKPEDTAVYYCAAEYYYPWPLYYITDGIYDMYYWGQGTQVTVSS | low polyreactivity |
| QVQLVESGGGLVQAGGSLRLSCAASGLTFYYYAMGWYRQAPGKERELVATISGSGGNTYYADSVKGRFTISRDNAKNTVFLQMNSLKPEDTAVYYCNARYRWWLYYSRDRVYYWGQGTQVTVSS | high polyreactivity |
| QVQLVESGGGLVQAGGSLRLSCAASGLTFYYYVMGWYRQAPGKERELVAAISKSGGRTYYADSVKGRFTISRDNAKNTVYLQMNSLKPEDSAVYYCAAMYTPNYTAYDSWGQGTQVTVSS | high polyreactivity |
| QVQLVESGGGLVQAGGSLRLSCAASGLTFYYYVMGWYRQAPGKERELVAAISKSGGRTYYADSVKGRFTISRDNAKNTVYLQMNSLKPEDTAVYYCAALYTPNYTAYDSWGQGTQVTVSS | high polyreactivity |
| QVQLVESGGGLVQAGGSLRLSCAASGLTIFVYAMGWSRQAPGKERELVAAISDSGGSTYYADSVKGRFTISRDNAKNTVYLQMNSLKPEDTAVYYCAADYRGIYSGIWGDYWGQGTQVTVSS | low polyreactivity |
| QVQLVESGGGLVQAGGSLRLSCAASGLTIGYYAMGWYRQAPGKERELVAAISGSGGATYYADSVKGRFTISRDNAKNTVYLQMNSLKPEDTAVYYCAAKWGRTGRFDYWGQGTQVTVSS | low polyreactivity |
| QVQLVESGGGLVQAGGSLRLSCAASGLTIQRNDMGWYRQAPGKEREFVATITSNAGSTYYADSVKGRFTISRDNAKNTVYLQMNSLKPEDTAVYYCARERWWGGSDYWGQGTQVTVSS | high polyreactivity |
| QVQLVESGGGLVQAGGSLRLSCAASGLTIRSYGMGWYRQAPGKERELVASITWSGGSTYYADSVKGRFTISRDNAKNTVYLQMNSLKPEDTAVYYCAASFDFQGYHYGYWGQGTQVTVSS | high polyreactivity |
| QVQLVESGGGLVQAGGSLRLSCAASGLTISYYAMGWYRQAPGKERELVAAISTDSSTNYADSVKGRFTISRDNAKNTVYLQMISLKPEDTAVYYCAAVVVYGPIHGYWGQGTQVTVSS | low polyreactivity |
| QVQLVESGGGLVQAGGSLRLSCAASGLTIWRYAMGWYRQAPGKEREFVATISQYGGRTYYAASVKGRFTITRDNAKKTVNLQMNSLKPEDTAVYYCAADDWRWGYDYWGPGTQVTVSS | high polyreactivity |
| QVQLVESGGGLVQAGGSLRLSCAASGLTLAPNAMGWYRQSPGKERELVAAITRSGGDTYYADSVKGRFTISRDTAKNTVYLQMNSLKPEDTAVYYCAADYWFRYGTYTGLTSYYYWGQGTQVTVSS | high polyreactivity |
| QVQLVESGGGLVQAGGSLRLSCAASGLTLAYAMGWYRQPPGKEREFVAAISSSGGSTYYADSVKGRFTISRDNAKNTVYLQMNSLKPEDTAVYYCAARTNPGRYYYRFSGGSWGQGTQVTVSS | high polyreactivity |
| QVQLVESGGGLVQAGGSLRLSCAASGLTLDYYARGWYRQAPGKDRELVAVIRGRSGSTYYADSVKGRFTISRDNAKNTVYLQMNSLKPEDTAVYYCARVTTYGDYYWGQGTQVTVSS | high polyreactivity |
| QVQLVESGGGLVQAGGSLRLSCAASGLTLGSYAMGWYRLAPGKERELVAAISRRSGRTYYADSVKGRFTISRDNAKNTVYVQMNSLKPEDTAVYYCNRGYTAQVYTEFDYWGHGTQVTVSS | low polyreactivity |
| QVQLVESGGGLVQAGGSLRLSCAASGLTLKRYAMGWYRQAPGKERELDAAISKSGGSTYYADSVKGRFTSSRDNAKNTVYLQMNSLKPEDTPVYYCAADSYNLWDDYWGQGTQVTVSS | low polyreactivity |
| QVQLVESGGGLVQAGGSLRLSCAASGLTLPWYAMGWYRQAPGKERELVAAITWDGTRTYYADSVKGRFTISRDNAKNTVYLQMNSLKPEDTAVFYCNARRVRGTFYRSGVVGYSYWGHGTQVTVSS | high polyreactivity |
| QVQLVESGGGLVQAGGSLRLSCAASGLTLQPYAMGWYRQAPGKERELVAAITSGGSTYYADSVKGRFTISRDNAKNTVYLQMNSLKPEDTAVYYCAAVGRHYYVKFDYWGQGTQVTVSS | low polyreactivity |
| QVQLVESGGGLVQAGGSLRLSCAASGLTLRYYVMGWYRQAPGKERELVASITRSGGSTSYADSVKGRFTISRDNAKNTVYLQMNSLQPEDTAVYYCNRRTYVGTRASFLYYYWGQGTQVTVSA | high polyreactivity |
| QVQLVESGGGLVQAGGSLRLSCAASGLTLTSNAMGWYRQAPGKERELVAAINGSGGITYYADSVKGRFTISRDNAKNTVYLQMNSLKPEDTAVYYCNTVHYNLDYEYDYWGQGTQVTVSS | low polyreactivity |
